Among the data in article PMC10870365, “Dissection of protein and RNA regions required for SPEN binding to XIST A-repeat RNA” are Kd values, retold here.

For this series, the target named is T1, SPEN RRM 2-3 (Homo sapiens) (UniProt Q96T58).
T1 sequence: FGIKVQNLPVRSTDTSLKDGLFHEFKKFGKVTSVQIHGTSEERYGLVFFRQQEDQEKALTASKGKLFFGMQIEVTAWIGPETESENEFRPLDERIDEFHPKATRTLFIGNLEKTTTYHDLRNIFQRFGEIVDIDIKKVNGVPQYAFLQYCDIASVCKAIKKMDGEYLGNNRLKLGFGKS
Put plainly: EMSA. Conditions: EMSA: 20 mM Tris-HCl pH 7.5, 150 mM KCl, 5 mM MgCl2, 10% glycerol, room temperature 30 min, 2 nM each labeled RNA (multiplexed), 4.5% TBE native gel.

Consider “GUACCAGGUAUGUGAUGACAUCAGCCGACGCCUGGCACUGCUGCAGGAACAGUGGGCUGGAGGAAAGUUGUCAAUACCUGUAAAGAAGAGAAUGGCUCUACUGGUGCAAGAGCUUUCAAGCCACCGGUGGGACGCAGCAGAUGACAUCCACCGCUCCCUCAUGGUUGACCAUGUGACUGAGGUCAGUCAGUGGAUGGUAGGAGUUAAAAGAUUAAUUGCAGAAAAGAGGAGUCUGUUUUCAGAGGAGGCAGCCAAUGAAGAGAAAUCUGCAGCCACAGCUGAGAAGAACCAUACCAUACCAGGCUUCCAGCAGGCUUCAUAAUCCUCGGUUCCCCAGACUCACCGGACACCAUCUCCU [SRA]”, for which the Kd was found to be 5.57 µM.

With “GGGCUGCGGAUACCUGGUUUUAUUAUUUUUUCUUUGCCCAACGGGGCCGUGGAUACCUGCCUUUUAAUUCUUUUUUAUUCGCCCAUCGGGGCCGCGGAUACCUGCUUUUUAUUUUUUUUUCCUUAGCCCAUCGGGGUAUCGGAUACCUGCUGAUUCCCUUCCCCUCUGAACCCCCAACACUCUGGCCCAUCGGGGUGACGGAUAUCUGCUUUUUAAAAAUUUUCUUUUUUUGGCCCAUCGGGGCUUCGGAUACCUGCUUUUUUUUUUUUUAUUUUUCCUUGCCCAUCGGGGCCUCGGAUACCUGCUUUAAUUUUUGUUUUUCUGGCCCAUCGGGGCCGCGGAUACCUGCUUUGAUUUUUUUUUUUCAUCGCCCAUCGGUGCU [XIST A-full]”, the Kd came to 1.05 µM.
